Measurements reported in US20220281949A1 (UNIVERSITY HEALTH NETWORK, published 2022).

Biological target: T1, soluble CD4 (sCD4): human CD4 extracellular domain fused with a 6×His tag via a GS linker (human, UniProt P01730 26-396)
T1 construct: Produced in HEK293T supernatant; for staining the monomer was dimerized with a PE-labeled anti-6×His mAb (AD1.1.10); also called dimerized sCD4
Assay: flow cytometry: K562 cells expressing the class II molecule stained with sCD4 dimerized by PE anti-His mAb

- binding result: no binding
B1: wild-type DR1 (DRA1*01:01/DRB1*01:01) on K562 cells (peptide-MHC, human)
MHC II alpha: not shown
MHC II beta: not shown
notes: whole, on cells; Stably transduced in class II-deficient K562 cells
